Assay results as given in patent publication US20090239794A1, “HCV F PROTEIN AND USES THEREOF” (priority 2004, published 2009).
Where “and” joins values, the source holds several entries; their conditions need not be identical. Equal entries are not always repeated.

System: C57Bl/6 mice
Experiment: Protocol 2: ARFP immunization of mice, total anti-ARFP Ig ELISA
Settings: for Titer (ARFP-specific Ig) / ELISA optical density (total anti-ARFP Ig), serum dilution 1/50 / ELISA optical density (total anti-ARFP Ig), serum dilution 1/100 / ELISA optical density (total anti-ARFP Ig), serum dilution 1/200 / ELISA optical density (total anti-ARFP Ig), serum dilution 1/400 / ELISA optical density (total anti-ARFP Ig), serum dilution 1/800 / ELISA optical density (total anti-ARFP Ig), serum dilution 1/1600: individual mice
[1] = 1st immunization (day 0), blood taken prior to immunization, listed as ARFP
[2] = 2nd immunization (day 14), blood taken prior to immunization, listed as ARFP
[3] = 3d immunization (day 29), blood taken prior to immunization, listed as ARFP
[4] = Sacrifice (day 52), listed as ARFP

B1: Fmut8Δ11: truncated recombinant HCV-1a F protein lacking the first 11 N-terminal residues shared with core; SEQ ID NO: 12; produced in E. coli (protein)
chain: PNVTPTVAHRTSSSRVAVRSLVEFTCCRAGALDWVCARRGRLPSGRNLEVDVSLSPRHVGPRAGPGLSPGTLGPSMAMRAADGRDGSCLPVALGLVGAPQTPGVGRAIWVRSSIPSRAASPTSWGTYRSSAPPLEALPGPWRMASGFWRTA
modifications: Hepatitis C virus
Titer (ARFP-specific Ig) (1st immunization (day 0), blood taken prior to immunization): 0 | ELISA optical density (total anti-ARFP Ig), serum dilution 1/50 [1]: 0.211 and 0.209 and 0.199 and 0.218 and 0.323 and 0.278 and 0.229 and 0.166 and 0.236 and 0.243 and 0.247 and 0.208 and 0.206 and 0.205 and 0.217 | ELISA optical density (total anti-ARFP Ig), serum dilution 1/100 [1]: 0.128 and 0.115 (2×) and 0.174 and 0.208 and 0.186 and 0.171 and 0.152 and 0.161 (2×) and 0.145 and 0.134 and 0.132 and 0.142 and 0.127 | ELISA optical density (total anti-ARFP Ig), serum dilution 1/200 [1]: 0.123 and 0.150 and 0.128 and 0.136 (2×) and 0.114 and 0.111 and 0.121 and 0.113 (2×) and 0.104 and 0.117 and 0.164 and 0.144 and 0.140 | ELISA optical density (total anti-ARFP Ig), serum dilution 1/400 [1]: 0.132 and 0.164 and 0.114 and 0.118 and 0.116 and 0.121 and 0.133 and 0.115 and 0.104 and 0.110 and 0.120 and 0.128 and 0.191 and 0.138 and 0.126 | ELISA optical density (total anti-ARFP Ig), serum dilution 1/800 [1]: 0.119 and 0.138 and 0.113 and 0.118 and 0.115 (2×) and 0.117 and 0.128 and 0.108 and 0.103 and 0.105 and 0.123 and 0.134 and 0.137 and 0.114 | ELISA optical density (total anti-ARFP Ig), serum dilution 1/1600 [1]: 0.138 and 0.122 and 0.109 (2×) and 0.110 and 0.116 and 0.124 and 0.108 and 0.106 and 0.107 and 0.105 and 0.119 and 0.129 and 0.127 and 0.114 | ELISA optical density (total anti-ARFP Ig), serum dilution 1/50 [2]: 0.370 and 0.625 and 0.303 and 0.339 and 0.421 and 3.852 and 0.552 and 0.270 and 2.758 and 0.505 and >4.000 (3×) and 0.189 and 3.567 | ELISA optical density (total anti-ARFP Ig), serum dilution 1/100 [2]: 0.187 and 0.306 and 0.155 and 0.164 and 0.156 and 1.842 and 0.204 and 0.153 and 0.560 and 0.191 and 3.323 and 0.141 and 3.184 and >4.000 and 1.876 | ELISA optical density (total anti-ARFP Ig), serum dilution 1/200 [2]: 0.168 and 0.183 and 0.128 and 0.126 and 0.133 and 1.337 and 0.149 and 0.124 and 0.295 and 0.144 and 2.201 and 0.112 and 3.227 and >4.000 and 1.851 | ELISA optical density (total anti-ARFP Ig), serum dilution 1/400 [2]: 0.173 and 0.152 and 0.136 and 0.129 and 0.122 and 0.777 and 0.133 and 0.123 and 0.204 and 0.131 and 1.212 and 0.111 and 1.433 and 2.473 and 0.736 | ELISA optical density (total anti-ARFP Ig), serum dilution 1/800 [2]: 0.156 and 0.130 and 0.123 and 0.121 (2×) and 0.539 and 0.125 and 0.124 and 0.173 and 0.122 and 0.622 and 0.113 and 0.790 and 2.199 and 0.427 | ELISA optical density (total anti-ARFP Ig), serum dilution 1/1600 [2]: 0.137 and 0.126 and 0.118 and 0.122 and 0.119 and 0.546 and 0.125 and 0.146 and 0.154 and 0.115 and 0.337 and 0.113 and 0.462 and 1.296 and 0.271 | Titer (ARFP-specific Ig) [2]: 0 (9×) and 200 (2×) and 50 and 400 (2×) and >1600 | ELISA optical density (total anti-ARFP Ig), serum dilution 1/50 [3]: 3.831 and 3.849 and 3.373 and 3.573 and 2.987 and 2.874 and 2.626 and 3.470 and 3.517 and 1.225 and 3.635 and 0.801 and 3.936 and 3.926 and >4.000 | ELISA optical density (total anti-ARFP Ig), serum dilution 1/100 [3]: 3.525 and 3.898 and 2.898 and 1.264 and 0.982 and 1.468 and 1.197 and 2.613 and 1.648 and 0.560 and >4.000 (2×) and 0.304 and 3.959 and 3.978 | ELISA optical density (total anti-ARFP Ig), serum dilution 1/200 [3]: 2.387 and 3.359 and 1.364 and 1.013 and 0.684 and 0.906 and 0.657 and 3.189 and 1.518 and 0.303 and 3.924 and 0.240 and 3.936 and 3.853 and >4.000 | ELISA optical density (total anti-ARFP Ig), serum dilution 1/400 [3]: 1.910 and 2.646 and 1.019 and 0.830 and 0.473 and 0.493 and 0.397 and 3.666 and 1.315 and 0.291 and 3.086 and 0.174 and 3.874 and 3.765 and >4.000 | ELISA optical density (total anti-ARFP Ig), serum dilution 1/800 [3]: 1.316 and 1.965 and 0.647 and 0.556 and 0.366 and 0.536 and 0.266 and 3.106 and 1.194 and 0.218 and >4.000 and 0.188 and 3.874 and 3.903 and 3.429 | ELISA optical density (total anti-ARFP Ig), serum dilution 1/1600 [3]: 0.770 and 1.960 and 0.558 and 0.428 and 0.284 and 0.513 and 0.298 and 3.423 and 1.055 and 0.187 and 3.573 and 0.266 and 3.907 and 3.939 and 3.210 | Titer (ARFP-specific Ig) [3]: 800 and >1600 (7×) and 400 (2×) and 100 (2×) and 200 and 50 and 0 | ARFP-specific Ig titer, mean+/−standard deviation (Protocol 2, before the 2nd immunization): 190.0+/−401.7 | anti-ARFP Ig titer, mean+/−standard deviation (Protocol 2, day 29): 883.3+/−694.7 | anti-ARFP Ig titer, mean+/−standard deviation (Protocol 2, day 52): 1493+/−272.0 | ELISA optical density (total anti-ARFP Ig), serum dilution 1/50 [4]: 3.593 and 3.623 and 2.931 and 3.934 and 3.865 and >4.000 and 3.796 and 3.843 and 3.456 and 3.855 and 3.717 and 3.534 and 3.636 and 3.780 and 3.783 | ELISA optical density (total anti-ARFP Ig), serum dilution 1/100 [4]: 3.071 and 3.581 and 2.555 and 3.459 and >4.000 (2×) and 3.873 and 3.848 and 3.622 and 3.966 and 1.524 and 2.193 and 3.518 and 2.628 and 3.952 | ELISA optical density (total anti-ARFP Ig), serum dilution 1/200 [4]: 1.902 and 1.744 and 1.431 and 2.418 and 2.646 and >4.000 and 3.807 and 3.818 and 3.641 and 3.184 and 3.740 and 1.047 and 2.844 and 2.829 and 3.142 | ELISA optical density (total anti-ARFP Ig), serum dilution 1/400 [4]: 1.187 and 1.526 and 0.987 and 1.257 and 2.378 and >4.000 and 3.802 and 3.891 and 3.742 and 3.885 and 3.660 and 1.001 and 3.548 and 3.151 and 3.752 | ELISA optical density (total anti-ARFP Ig), serum dilution 1/800 [4]: 1.110 and 1.341 and 0.818 and 1.093 and 2.236 and >4.000 and 3.867 and 3.833 and 3.665 and 3.171 and 3.717 and 0.856 and 3.406 and 3.707 and 3.620 | ELISA optical density (total anti-ARFP Ig), serum dilution 1/1600 [4]: 1.589 and 1.086 and 1.084 and 0.771 and 1.427 and >4.000 and 3.813 and 3.843 and 3.612 and 3.055 and 3.832 and 0.510 and 3.562 and 3.780 and 3.976 | Titer (ARFP-specific Ig) [4]: >1600 (13×) and 800 (2×)
